Reference: patent US20190060405A1

Target: rat CSF1-R (CD115) expressed on pDCs (rat) (UniProt Q00495)
Test: cell-based or functional assay

Chain of UniProt Q00495 (Q00495 20-978): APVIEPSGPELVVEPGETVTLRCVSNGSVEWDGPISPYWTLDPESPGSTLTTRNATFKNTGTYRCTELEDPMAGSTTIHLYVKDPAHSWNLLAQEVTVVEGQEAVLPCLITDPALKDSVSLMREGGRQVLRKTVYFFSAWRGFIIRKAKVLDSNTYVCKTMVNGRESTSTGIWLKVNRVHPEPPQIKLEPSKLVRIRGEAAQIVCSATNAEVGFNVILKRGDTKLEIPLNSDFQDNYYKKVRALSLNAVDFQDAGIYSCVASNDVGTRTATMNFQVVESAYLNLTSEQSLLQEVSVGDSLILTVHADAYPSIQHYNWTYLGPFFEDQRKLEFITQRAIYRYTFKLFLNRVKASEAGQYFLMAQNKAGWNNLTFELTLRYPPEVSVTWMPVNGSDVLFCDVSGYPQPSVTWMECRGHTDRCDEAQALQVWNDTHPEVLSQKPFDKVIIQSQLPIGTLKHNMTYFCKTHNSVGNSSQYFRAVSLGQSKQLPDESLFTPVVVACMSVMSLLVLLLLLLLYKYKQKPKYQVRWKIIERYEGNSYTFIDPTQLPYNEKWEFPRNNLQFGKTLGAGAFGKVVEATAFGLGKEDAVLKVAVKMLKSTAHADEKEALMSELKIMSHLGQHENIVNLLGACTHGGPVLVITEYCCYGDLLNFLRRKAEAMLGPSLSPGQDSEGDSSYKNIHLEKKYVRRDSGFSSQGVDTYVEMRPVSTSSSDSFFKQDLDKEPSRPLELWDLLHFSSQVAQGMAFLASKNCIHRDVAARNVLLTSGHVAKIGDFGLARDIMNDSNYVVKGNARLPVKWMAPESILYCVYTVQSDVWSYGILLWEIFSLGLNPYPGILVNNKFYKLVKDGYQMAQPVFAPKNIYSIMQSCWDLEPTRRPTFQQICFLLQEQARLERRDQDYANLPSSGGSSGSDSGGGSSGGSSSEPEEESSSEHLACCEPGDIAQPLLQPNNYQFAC

suppression of CD4+CD25- T cells proliferation (MLR, CFSE): 93.5%
Substance: Rat M-CSF protein (ab56288, ABCAM) (from UniProt Q8JZQ0 33-187) (ligand)
